Target: MBP-FhtR (faecalis heme transport regulator fused to the maltose binding protein) (Enterococcus faecalis OG1RF)
Assay: SEC; 40 uM apo- or holo- (hemin-complexed) MBP-FhtR in 100 ul loaded on Superdex 200 Increase 10/300 GL; 20 mM HEPES (pH 7), 300 mM NaCl; read at OD280 and OD410

## MBP-FhtR (faecalis heme transport regulator fused to the maltose binding protein) (natural protein)
  stoichiometry N: 2

Source: publication PMC7858072
